Test results published in publication PMC12752688.

Columns and labels:
[1] = molecular target: Trigger factor (Escherichia coli) (UniProt P0A850); conditions: cited from earlier work
[2] = molecular target: Trigger Factor (UniProt P0A850); assay: high-speed AFM (HS-AFM); TF alone at 5 uM on mica; projected area and height compared with monomers
[3] = molecular target: ribosome-nascent chain complex (not stated | E. coli) (UniProt P0ADZ0); assay: high-speed AFM (HS-AFM); RNC (2 nM) on mica, TF (1 uM) in the imaging solution, physiological buffer; 1 frame/s, 22-25 °C; dwell time analysis of single binding events
[4] = molecular target: native 70S ribosome from E. coli (E. coli) (UniProt P0ADZ0); assay: high-speed AFM (HS-AFM); 70S ribosomes without nascent chain partially immobilised on mica, TF in the imaging solution at a molar ratio of 200:1 TF:ribosome; 1 frame/s, 22-25 °C

Sequence of Trigger Factor (from UniProt P0A850 1-432) (natural protein) (P0A850 whole entry): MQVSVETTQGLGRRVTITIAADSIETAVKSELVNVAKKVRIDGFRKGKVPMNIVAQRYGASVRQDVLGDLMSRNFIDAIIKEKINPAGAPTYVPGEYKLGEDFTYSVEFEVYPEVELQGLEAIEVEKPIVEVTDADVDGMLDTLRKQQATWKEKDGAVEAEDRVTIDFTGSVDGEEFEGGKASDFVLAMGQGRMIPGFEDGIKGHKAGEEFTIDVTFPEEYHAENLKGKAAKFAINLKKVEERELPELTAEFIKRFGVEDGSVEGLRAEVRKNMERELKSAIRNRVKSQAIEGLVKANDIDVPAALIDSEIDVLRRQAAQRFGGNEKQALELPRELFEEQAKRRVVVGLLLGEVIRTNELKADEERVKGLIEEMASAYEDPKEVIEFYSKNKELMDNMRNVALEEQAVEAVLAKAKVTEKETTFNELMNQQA
Sequence of Trigger factor (P0A850 whole entry): as above

Row | Substance | Kd [1] | stoichiometry N [2] | duration of association [3] | duration of individual binding events [3] | longest interaction time (exit-tunnel site) [3] | longest interaction time (peripheral site) [3] | mean interaction time (exit-tunnel site) [3] | mean interaction time (peripheral site) [3] | stoichiometry N [3] | duration of association [4]
1 | Trigger factor (from UniProt P0A850) | 1.5 µM |  |  |  |  |  |  |  |  | 
2 | Trigger Factor (from UniProt P0A850 1-432) (natural protein) |  | 2 | > 5 s | > 30 s | < 80 s | > 30 s | 8 s | 3.9 s | 2 | < 5 s
